Experimental findings from US20250250357A1 (NANJING ZAIMING PHARMACEUTICAL, published 2025) are described below.

B1: S009-F7.11.11 chimeric antibody (antibody, human IgG1, kappa, V domains shown)
VH: EVQLQQSGPELVKPGASVKIPCKASGYTITDYNMDWVKQSRGKSLEWIGDVFPYNGDSIYNQKFEGRATLTVDKYSSTAYMELRGLTSEDTAVYFCARRKTGTGYFDVWGTGTTVTVSS
VL: QLVLTQSPAIMSASPGEKVTLTCSASSSVSSTYLSWYLQKPGSSPKLWIYSTSNLASGVPARFSGSGSGTSYSLTISSMEAEDAASYFCHQWSSYPYTFGGGTKLEIKR
notes: Human-murine chimeric antibody, human IgG1/kappa constant regions
B2: S009-F7.12.13 chimeric antibody (antibody, human IgG1, kappa, V domains shown)
VH: EVQLQQSGPELVKPGASVKIPCKASGYTFTDYNMDWVKQSHGKGLEWIGDINPNTDDTIYNQKFNGKATLTVDKSSSTAYMELRSLTSEDTAVYYCSRRLIGTGYFDVWGTGTTVTVSS
VL: B1 VL with L2I, S30I, S35C, L38R, K46E, S94N, E106G, I107M
notes: as for B1
B3: S009-F7.18.10 chimeric antibody (antibody, human IgG1, kappa, V domains shown)
VH: QVQLQQSGAELVRPGTSVKVSCKASGYAFTNYLIEWVKQRPGQGLEWIGVINPGSGGTKYNEKFKGKATLTADKSSSTAYMQLSSLTSEDSAVYFCASDYDYDPFAYWGQGTLVTVSA
VL: DIVMTQSHKFMSTSVGDRVSITCKASQDVSTAVAWYQRKPGQSPKLLIYWASTRHTGVPDRFTGSGSGTDYTLTISYMQAEDLALYYCQQHYSTPYTFGGGTKLEIKR
notes: as for B1
B4: S009-F7.21.16 chimeric antibody (antibody, human IgG1, kappa, V domains shown)
VH: QVQLQQPGTELVKPGASVKLSCKASGYTFTTFWMHWVKQRPGQGLEWIGGVNPTNGGTNYNEKFRTKATLTVDKSSTTADMQLSSLTSEDSAVYYCAPHYISSRPGFAYWGQGTLVTVSG
VL: DIVMTQSQKFMSTSGGDRVSVTCKASQNVGTNVAWYQQKPGQSPKALIYSASYRYSGVPDRFTGSGSGTDFILTISNVQSEDLAEYFCQQYNSYPLTFGGGTKLEIKR
notes: as for B1

Substitutions are numbered along the chain they refer to.

The target of one assay is T1, human MSLN-FL-his protein (human, UniProt Q13421 296-580).
T1 construct: Made in HEK293E cells, purified on nickel column; also called hMSLN-FL-his; human MSLN full-length protein; not shown: His tag
The assay is described as follows: ELISA, coated antigen, antibody 2 nM. Background: An ELISA detects its analyte on a solid surface through an enzyme-linked reagent.
Target sequence in this assay (Q13421 other isoform, or with tags, fused parts or gaps): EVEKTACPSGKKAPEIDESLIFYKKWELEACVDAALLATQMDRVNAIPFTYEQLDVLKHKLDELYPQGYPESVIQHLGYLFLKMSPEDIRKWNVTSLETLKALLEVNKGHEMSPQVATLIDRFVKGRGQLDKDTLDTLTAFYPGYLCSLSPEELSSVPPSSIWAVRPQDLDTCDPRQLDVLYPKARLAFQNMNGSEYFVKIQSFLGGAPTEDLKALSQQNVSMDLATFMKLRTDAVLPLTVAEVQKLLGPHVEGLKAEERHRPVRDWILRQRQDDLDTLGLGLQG
B1: the OD450 was determined as 2.13.

As for B2, the OD450 is 2.21.

B3 came in with an OD450 of 2.28.

B4 returned an OD450 of 2.31.

For another assay, the target named is T2, human MSLN-R1-his protein (human, UniProt Q13421 296-390).
T2 construct: Made in HEK293E cells, purified on nickel column; also called hMSLN-R1-his; human MSLN-R1 protein; not shown: His tag
T2 chain: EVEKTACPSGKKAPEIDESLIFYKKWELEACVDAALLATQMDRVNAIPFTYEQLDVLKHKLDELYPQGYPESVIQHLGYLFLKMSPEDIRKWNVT
The assay is described as follows: ELISA, coated antigen, antibody 2 nM.
B1 showed an OD450 of 0.05.

As for B2, the OD450 was determined as 0.05.

B3 gave an OD450 of 2.45.

As to B4, the OD450 amounted to 0.05.

The next assay has as its target T1, human MSLN-FL-his protein. Briefly: ELISA, coated antigen, antibody 20 nM.
Target sequence in this assay (Q13421 other isoform, or with tags, fused parts or gaps): as the sequence (Q13421 other isoform, or with tags, fused parts or gaps) above
Method: (§1) The plate was sealed with a plastic film and incubated at 4° C. overnight. The next day, the plate was washed twice with PBST, and a blocking buffer [PBS+2% (w/w) BSA] was added for blocking at room temperature for 2 h. The blocking buffer was discarded, and a chimeric antibody or negative control antibody serially diluted from 100 nM was added at 50 μL/well. After incubation at 37° C. for 2 h, the plate was washed 3 times with PBST. […] After incubation at 37° C. for 2 h, the plate was washed 5 times with PBST. A TMB substrate was added at 50 μL/well for incubation at room temperature for 5-10 min, and then a stop solution (1.0 N HCl) was added at 50 μL/well.
Take B1: the OD450 was 2.35.

B2: the OD450 was 2.19.

As to B3, the OD450 came to 2.29.

Take B4: the OD450 was found to be 2.46.

For a further assay, the target named is T2, human MSLN-R1-his protein. The assay is described as follows: ELISA, coated antigen, antibody 20 nM.
Method: as §1
Turning to B1, the OD450 was determined as 0.06.

In turn, B2 yielded an OD450 of 0.06.

In turn, B3 yielded an OD450 of 2.45.

B4: the OD450 is 0.06.

The target of the next assay is T1, human MSLN-FL-his protein. The assay is described as follows: ELISA, coated antigen, antibody 0.2 nM.
Target sequence in this assay (Q13421 other isoform, or with tags, fused parts or gaps): as the sequence (Q13421 other isoform, or with tags, fused parts or gaps) above
Method: as §1
Regarding B1, the OD450 amounted to 1.54.

Molecule B2 showed an OD450 of 2.14.

Molecule B3 returned an OD450 of 2.33.

The molecule B4 came in with an OD450 of 2.15.

The target of another assay is T1, human MSLN-FL-his protein. Briefly: ELISA, coated antigen, antibody 200 nM.
Target sequence in this assay (Q13421 other isoform, or with tags, fused parts or gaps): as the sequence (Q13421 other isoform, or with tags, fused parts or gaps) above
Consider B1, for which the OD450 was 2.62.

In turn, B2 yielded an OD450 of 2.65.

In turn, B3 returned an OD450 of 2.4.

The molecule B4 returned an OD450 of 2.42.

The next assay has as its target T2, human MSLN-R1-his protein. The assay is described as follows: ELISA, coated antigen, antibody 0.2 nM.
On to B1, for which the OD450 came out at 0.05.

For B2, the OD450 was determined as 0.05.

For the molecule B3, the OD450 is 2.46.

As to B4, the OD450 came out at 0.05.

The target of the next assay is T2, human MSLN-R1-his protein. The assay is described as follows: ELISA, coated antigen, antibody 200 nM.
Method: as §1
On to B1, for which the OD450 amounted to 0.06.

B2 registered an OD450 of 0.06.

In the case of B3, the OD450 was determined as 2.77.

B4 came in with an OD450 of 0.17.

Another assay addresses T1, human MSLN-FL-his protein. Briefly: ELISA, coated antigen, antibody 0.02 nM.
Target sequence in this assay (Q13421 other isoform, or with tags, fused parts or gaps): as the sequence (Q13421 other isoform, or with tags, fused parts or gaps) above
Molecule B1 came in with an OD450 of 0.41.

In the case of B2, the OD450 came out at 1.44.

For B3, the OD450 was 1.91.

B4 yielded an OD450 of 1.39.

Another assay deals with T2, human MSLN-R1-his protein. The assay is described as follows: ELISA, coated antigen, antibody 0.02 nM.
Method: as §1
Molecule B1 displayed an OD450 of 0.05.

For B2, the OD450 was 0.05.

As for B3, the OD450 amounted to 2.05.

Regarding B4, the OD450 turned out to be 0.05.

For the next assay, the target named is T1, human MSLN-FL-his protein. Briefly: ELISA, coated antigen, antibody 0.002 nM.
Target sequence in this assay (Q13421 other isoform, or with tags, fused parts or gaps): as the sequence (Q13421 other isoform, or with tags, fused parts or gaps) above
Method: as §1
Molecule B1 showed an OD450 of 0.16.

For B2, the OD450 stood at 0.6.

Regarding B3, the OD450 was 0.97.

B4 had an OD450 of 0.82.

The target in another assay is T2, human MSLN-R1-his protein. Briefly: ELISA, coated antigen, antibody 0.002 nM.
Method: as §1
Regarding B1, the OD450 is 0.05.

B2 came in with an OD450 of 0.05.

With B3, the OD450 is 1.17.

In the case of B4, the OD450 came out at 0.05.

A further assay addresses T1, human MSLN-FL-his protein. Briefly: ELISA, coated antigen, antibody 0.0002 nM.
Method: as §1
Molecule B1 showed an OD450 of 0.08.

B2 registered an OD450 of 0.15.

The molecule B3 showed an OD450 of 0.31.

As to B4, the OD450 is 0.35.

The next assay addresses T2, human MSLN-R1-his protein. Briefly: ELISA, coated antigen, antibody 0.0002 nM.
Method: as §1
On to B1, for which the OD450 was determined as 0.05.

B2 had an OD450 of 0.05.

In the case of B3, the OD450 amounted to 0.38.

Take B4: the OD450 came out at 0.04.

Another assay concerns the target T1, human MSLN-FL-his protein. The assay is described as follows: ELISA, coated antigen, no antibody (blank).
Method: as §1
Take B1: the OD450 came to 0.08.

In turn, B2 registered an OD450 of 0.06.

B3 gave an OD450 of 0.07.

In the case of B4, the OD450 came to 0.08.

For the next assay, the target named is T2, human MSLN-R1-his protein. Briefly: ELISA, coated antigen, no antibody (blank).
Method: as §1
Take B1: the OD450 is 0.07.

In turn, B2 came in with an OD450 of 0.06.

Consider B3, for which the OD450 amounted to 0.08.

B4 registered an OD450 of 0.07.
